Results published in the DeepSol protein solubility set.

Assay: soluble on expression in E. coli; label from the status in PepcDB or PDB records

Soluble on expression in E. coli, not soluble:
MGSDKIHHHHHHMDIKLKDFEGPLDLLLHLVSKYQVDIYEVPITEVIEQYLAYIATLQAMRLEVAGEYMLMASQLMVIKSRRLLPKVVEQIDPEDDPEMDLLDQLEEYRKFKLLSEKLGEQHDERANYFSKPKLDLIYDDVQLAKDKTIIDIFLAFSKVMAEKQASLRQSHATIARDEYKIEDMMDFVRSRFETGPRLELRQLFQESQDVNEMITIFLATLELVKVHEIVLEQTETFGDIYLVRSEDESLS
MGSDKIHHHHHHMDIREKKTPPTLAPGQTSNPATSLPPRTVEGLRDLVVSIGRDQAEVKLGAKALTVLAHLVERPEEVAVRTITDLANSLDVNASTLTRLATRLGFEGFAEFQGVFRNSMAQRHRHFYSQQAERLVGADNTGMPGGVSPEVGAVVQLAHESIQNVERFVARLSAEELRGAAELLAEAPRVRVHGLRQFSALASFLCYGLSMIRSDVGLLDAHGLGVAEGLAQLQRGDVVVVMSVAPYTRSVAEAAAAAAESGLTVIAITDTSASPLAAAARHAFFIPHESSFFSNSMGAYLIFCEGLLNLAATKLGKRSLRALARREQMIAALDIETE
MGSDKIHHHHHHMDITLFKTLLKVAAIGNISKAAAVLCVTQSAVSRRLKQLEDHIGKPLLIRSGNAVRPTEAGQFVLAKAQQIVDLESQIVDKLNVNEPKQRISLCCTPAFGIGRLPSIVSAFMADNAESADLNFVFNMPEQALEGIENGRFDLAIIEHCDDLNMAGHRGYPLPDDEMIFLSAPSLGIDSPAPSIEQLFDKRLYLKNEQGCARRFLDKNLALTGHSITEFANIIYFDDLQFIMREVLAGKGISFVPIGLVVDELCRHTLMAHRIADFDHFYPRTIILGRRAPSPLLLSFINTIYIAFGMPCPSIFHTEAPFPPEGFPESL
MGSDKIHHHHHHMDLDRIKGEIVAFVEGRKSEFAAIAEDLYLHPETGLNEVRSSALLADFLEREGFRVERGIAGLPTAFRAETGEGGPVIAFMAEMDALPVMGHACGHNVIAAAAVGAATALRSILPPDAARIVVLGTPAEEMGIGKVDMIANGAFDGVEFALMVHPSSRRYVIKHYLGLARVRFTFFGKPAHAAAYPEEGINALDGVIQTFNGISALRQQLRQDVRVHGIITEGGVAPNIIPERASAHFYVRADDLAELERAKARVLACAEGAALATGCRLQVDADPRIMAPLKVNRIFSDLYSAQLAYLDLQESENQPDKNKGSSDIGNVSQIVPTIHPHVPIGDGINIHSEAFARATVSGKGKAAVAEGATALALTAAELAARPDIREEIWREFRS
MGSDKIHHHHHHMDLEEQKKAVIEKLIREGYIKSKRVIDALLKVPREEFLPEHLKEYAYVDTPLEIGYGQTISAIHMVGMMCELLDLKPGMKVLEIGTGCGYHAAVTAEIVGEDGLVVSIERIPELAEKAERTLRKLGYDNVIVIVGDGTLGYEPLAPYDRIYTTAAGPKIPEPLIRQLKDGGKLLMPVGRYLQRLVLAEKRGDEIIIKDCGPVAFVPLVGKEGFQG
MGSDKIHHHHHHMDMNQGGLISLSPHAQVLLRPEGIQFGLDSANAGIFAAPESLIVAIVQVLRGFWQPIAKTTAIEQLTEAGLQPVAARGLIDDLLHHRVLSIVERNLTVAVGGFGPLVAPIKAVLGCAGISVVQAHTIQRCMTLESLLSREVPLIWINSTPSFSHIAQELVEVKTMIPVGLMDNHAIIGPVRIDGRGPCGLCTDLYRSDADPQWPALLKNATAPLTAPAALTYATAARVTRLVEQLSEPRQRVTVTAGLVIRVSSDGELSSEIMSPHSRCPLCWSSRWDCDPLTGTEQAFLADLGQNVLL
MGSDKIHHHHHHMDMQQLKPSREHDAPLYLQLYRRYRDAIIARKLHPGDRVPSVRSLASELNLARGTVEMAYQMLASEGYFLTRGPAGTIVSPQLEKLTESGYSTTSLSQIPSRPQIETAQVQPFQLGLPALDAFPRKTWARLAGHNLRTLDTAAMISPDPAGYEPLRRAIATYLGISRGITCTHEQVFITAGYRGALELVCRTLLQPGDIGWFEDPGYIFARQFLARAGMHLEPVPVDEEGLNVDIGQQRAAEARFAVVTPTHQSPMGMALSLPRRLQLLEWASHHRSWIIEDDYDSEFRYHGRPLPALKSLDRDGRVLYTGTFSKVLFPGLRLAYLVVPEPQIERFRDTANHFCCAGSILPQATVANFMEQGHFARHLRRMRSLYAIRRGYLVDELLQALGSHLTVQPQAGGIHVLATLTARGNDQSLAAAAQSHGLAIQALNDWRTSKTSRGGLLMGFTNVTEPAMAKALVHRLAAAIGLS
MGSDKIHHHHHHMDNPRSIRVHASELEVGRPLSWAVYDENGVLLLNKGMAPATEAQIIAMLQRGVFRQPGSGVGAGAAGSKSAIPPMGLGPSEDESKTRLTGDPIPFDDLAMQPGEVLQLHPALEVVAADVPAVLIGYLKDRAIVVATPMVSGKPLLVKDGTLFNIKTFSGTSLYNFRTRVLASHSHPMPHLHLEYPRLVCQTKIRKALRALTDLPATLLNPASGDSRDVVLKDLSVGGAKIVLPEPVTCAKGDPFVVGFRIKIGDDLEEAIRADAVMCSAESRTGKETTVHTMSVQFKELPKSTSLAIMALVYRLQLRKG
MGSDKIHHHHHHMDREIFVSYSVSANSIAGWVAYGGSESFHDMSRGILAARIGIPRLLRMFRKFCIKSSWYVPGIVMETFPDEVRAIYADGHELGTHGYLHEYAPSMSYDQEERVIAKTAELVKDITGHNPYGHLPSQWEESVNTMRILMNHGYKYARGLEDDDFHPFYASTGRSWPRVDYSKLPETWMKPMNLGEKIDFVEIPINWFLNDGTYFNFNKHVPGKRPMSLSEVLENWKAAFDYVYREYEYAIFPVNIHPDTSGNPEVQIFHEKFISYILEHNGASFVSDSFIAEDFRKRYPFPHEFREKVDL
MGSDKIHHHHHHMDRIQEMTLFAALAGQTSFTGVARHVGLSTATVTRAVASLESRLGILLVVRTTRNMRLTKAGQRFAEDCRRLLADLSEAENAAAGVHALPAGTLTVTAPQMFGALHVTPVLTRFLSEYPAVDIRAILVDRVVSMLDEGVDVAVRIGALRDSSLTAIRVGSVRRMVCASPVYLTQHGTPRHPDDLQQHATISTSAPERPPHWAFRVDDQDYSVNVASRLSLTSFQASINAALQHWGLTQVPHYQIREHLHNGRLVCVLEDFEIAPEPVHVVYSEGRRGSSRVRSFVDFCVSALREDLQFEAAG
MGSDKIHHHHHHMDRVQAMRVFVAVVDCGGFTRAAQQLQLPRATVSSAVQQLEAQLGARLLHRTTRRVQLTLDGGTFYERCQQLLADFDELESLFSQQGASPRGKLRIDVPGPIGRQVLAPALPEFFRLYPGIELELGVTDRPVDLIQEGVDCVIRVGALAESRLVARRIGMLPQGNYASPDYLAAFGAPASPDALAGHRAVNYASPSTGKVFAWEYLQDGERRELALQSLVSVNQVESYIACALAGLGMIQLPRYDAEPHVAAGALVEVLADWPPPAMPVSVLYPHRRHLSRRVQVFVEWAGALLRERLRLGA
MGSDKIHHHHHHMDSAYVFDSEQATKLLMKNYELVKTSGVSFIDKRIRFLIARLFAGNNEVVDPEEFSEINKEIKRQLGMFTALNGNVRASLVGLLMANDNASRESVQQVIANYNTLIQAGFQRTEYTYFAAYLLLESENPKKTARKAKTIHQLFKKDHPFLTKSEDVTTAVFLANLPEENTTKLAEITEYYFQEFAAKGFRKNDSLQFLATTGTLLYGEKDSKFIRRVDNIVEELRQKGIKVKPLHYSSIGILAFVMDARKIDSGLVNLIDELQQQPGLRFGREFVTALAISLYTEKQSGQMSKEQLEGLMVNVHILIAMEQAAAVSAAAAASAAAASS
MGSDKIHHHHHHMDTLFTINACKTFGCRNLGLPSAAEYHFPNFRLGYPALYCAACGSYPPLFNEREFRPWLAAYLTDHARRYGYFCPVCYQRDIIRYGRNPQGTQRLQCRHCKKVWTPKFPHIAPIEAPRRICSVPLIAPFQGNAAGQKLYFLLSFDAVRGNVIHLTSNFTPFAVGESLRYRWRGGQADREETDDIIQRISLTEMRFLQRSQFDEIQYGSAMQKRHARGNILRPVIAAHGHFKLLSQRFPEVKTHVIAHECFLRGAAIVAWAPLFRQRQGDLWYVEEEIRNPASPAPWQLLGKTHHGWWQNSWQRWTQEENQKMVCRLAGTVEENAFLPDLAASRRFTIWLKNRPAFAQSALYSAGRVTQIVASLVQEYNATLTAAAPGG
MGSDKIHHHHHHMDVNEIRENAKKLMELMMLDKPFVAVKLAKSKEEIPEGYETLDEEKRHCEMIQMARLERKKLYATVDKHLCKGGAYAMGVFRNPPEPLATGKLYVKLGNFKDEEAAKKTVDAIPKVEEEIYATVYAPLDETDFIPDSIVFIGEPLYALRLVQAILYHKGGRFQADFSGIQSLCADAVAAVYTRKAPNMTLGCNGSRKYAGIKPEEVVVAFPPEKLKDIVEAIEHFRQVWTCGH
MGSDKIHHHHHHMDVWKVLGRYSNVLVLSKKNSILILEINGKAPKPGESVRVWNNRVMTGKELKAKLLAHFDEELSLKVLKVPGLLEFLHDISRGFDKKYVHFVKLFVKHLVPSRFLKMNNEEKKIIMKSFPEVFESGPSSVRIRFSVKSFFEYVQKNFPINRNINEEALRRTVTLKRPILSTEEYDVYQMNEPLSKGFAGKNYMALPLSGKYLIVVFRRRNFPFVEFKLKEEPDLTFFEDFVNDKVAVEKRENGWVLIWKDREMMEFELPDKELLPRPEKLVDDDLLDAVFLLNSLLEENVRFASMPSFGVQEMWWEKDNNRVILVVNTVRFGRVVADVILEGRSLSVRFYAEKNSEELSAHSEELQKEFERLGLIAHVFFLRKDPMNWEGFNAYG
MGSDKIHHHHHHMDYTPRLQPARLIKRYKRFLADVVTPEGETLTLHCANTGAMTGCATPGDTVWYSTSDNPKRKYPQSWELTETQQNHWICVNTLRANTLLYEALLENRIEELAGYSDIKTEVKYGTENSRIDLLLQAPDRIDCYIEVKSVTLLQHECGYFPDAVTLRGQKHLRELQQMVSNGKRAVLFFAVLHSGIQQVSPARHIDSRYAELFIEAQQAGVEILCYGSTLCPDGIKLTNKLPLLG
MGSDKIHHHHHHMEAAAQFFVESPDVVYGPEAIEAQYEYRTTRVSREGGVLKVHPTSTRFTFRTARQVPRLGVMLVGWGGNNGSTLTAAVLANRLRLSWPTRSGRKEANYYGSLTQAGTVSLGLDAEGQEVFVPFSAVLPMVAPNDLVFDGWDISSLNLAEAMRRAKVLDWGLQEQLWPHMEALRPRPSVYIPEFIAANQSARADNLIPGSRAQQLEQIRRDIRDFRSSAGLDKVIVLWTANTERFCEVIPGLNDTAENLLRTIELGLEVSPSTLFAVASILEGCAFLNGSPQNTLVPGALELAWQHRVFVGGDDFKSGQTKVKSVLVDFLIGSGLKTMSIVSYNHLGNNDGENLSAPLQFRSKEVSKSNVVDDMVQSNPVLYTPGEEPDHCVVIKYVPYVGDSKRALDEYTSELMLGGTNTLVLHNTCEDSLLAAPIMLDLALLTELCQRVSFCTDMDPEPQTFHPVLSLLSFLFKAPLVPPGSPVVNALFRQRSCIENILRACVGLPPQNHMLLEHKMERPGPSLKRVGPVAATYPMLNKKGPVPAATNGCTGDANGHLQ
MGSDKIHHHHHHMEDKLISRYDILVNRYKELVSEKLSRKDFIEYNEILFSAHSCAIEGNSFSVDETRTLKEKGLGMIPKGKTLLEAFEILDHFQAYEYLLKNLDRPLTEELLKETHRLLTEHTLSYKTQYDEIPSNPGEYTTVDMCAGDTIFGDHEQLIKQVPRLLQSTQQVLDSGKIHPMIIAARFHGFYEYLHPFRDGNGRLGRLMSNFILLKKEQPLLIIPGSQREEYITALKYIKKERTDEFLIDFFFRTSIKRMEQEIEEKKNLTENFIRGMEFVRNVKSSNDDISEI
